Columns and labels:
[1] = test system: PEG12-Tregitope peptide (Peg12-Val-Cit-Tregitope-Nle)
[2] = test system: PEG2-Tregitope peptide (KKKK-Peg2-Val-Cit-Tregitope-Nle)

Question: For “Recombinant human Cathepsin B (catalog 953-CY of R&D Systems)”, which “cleavage of the Val-Cit site, evaluated by mass spec” value [1] is on record?
Answer: The value was “For the PEG12 product, successful cleavage was demonstrated”.

Question: And the “cleavage of the Val-Cit site, evaluated by mass spec” value [2]?
Answer: Its value is “the PEG2 peptide did not have successful cleavage”.
